The values that follow come from publication PMC10837013, “Synergistic induction of phytoalexins in Nicotiana attenuata by jasmonate and ethylene signaling mediated by NaWRKY70”.

The data set addresses T1, NaWRKY70 (Nicotiana attenuata, UniProt A0A1J6IGI0 1-225).
T1 chain: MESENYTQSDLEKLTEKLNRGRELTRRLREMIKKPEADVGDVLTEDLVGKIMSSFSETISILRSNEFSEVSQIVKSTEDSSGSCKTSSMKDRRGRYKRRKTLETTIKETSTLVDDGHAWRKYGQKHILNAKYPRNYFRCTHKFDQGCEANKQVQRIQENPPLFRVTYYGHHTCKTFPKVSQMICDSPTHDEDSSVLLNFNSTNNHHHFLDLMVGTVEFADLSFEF
As to the kind of experiment: EMSA; Chemiluminescence EMSA kit (Beyotime), manufacturer's protocol; buffer, salt, pH and temperature not stated. Particulars: protein: recombinant; tags: GST (pGEX-4T-1); chain copies: 0; label: biotin.

B1: NaF6'H1 mProbe 1 (dsDNA)
DNA 1: GGTCTCTTTAGCTCTACCAACTATTC
DNA 2: GAATAGTTGGTAGAGCTAAAGAGACC
For B1, the binding result is “no binding”.
